Measurements from PMC10786891, “Massively parallel profiling of RNA-targeting CRISPR-Cas13d”.
Positions count from the first letter of the chain named. Numbers in names are those of the source.

T1: EsCas13d, nuclease-dead (Eubacterium siraeum, UniProt B0MS50, R295A;H300A;R849A;H854A)
T1 sequence: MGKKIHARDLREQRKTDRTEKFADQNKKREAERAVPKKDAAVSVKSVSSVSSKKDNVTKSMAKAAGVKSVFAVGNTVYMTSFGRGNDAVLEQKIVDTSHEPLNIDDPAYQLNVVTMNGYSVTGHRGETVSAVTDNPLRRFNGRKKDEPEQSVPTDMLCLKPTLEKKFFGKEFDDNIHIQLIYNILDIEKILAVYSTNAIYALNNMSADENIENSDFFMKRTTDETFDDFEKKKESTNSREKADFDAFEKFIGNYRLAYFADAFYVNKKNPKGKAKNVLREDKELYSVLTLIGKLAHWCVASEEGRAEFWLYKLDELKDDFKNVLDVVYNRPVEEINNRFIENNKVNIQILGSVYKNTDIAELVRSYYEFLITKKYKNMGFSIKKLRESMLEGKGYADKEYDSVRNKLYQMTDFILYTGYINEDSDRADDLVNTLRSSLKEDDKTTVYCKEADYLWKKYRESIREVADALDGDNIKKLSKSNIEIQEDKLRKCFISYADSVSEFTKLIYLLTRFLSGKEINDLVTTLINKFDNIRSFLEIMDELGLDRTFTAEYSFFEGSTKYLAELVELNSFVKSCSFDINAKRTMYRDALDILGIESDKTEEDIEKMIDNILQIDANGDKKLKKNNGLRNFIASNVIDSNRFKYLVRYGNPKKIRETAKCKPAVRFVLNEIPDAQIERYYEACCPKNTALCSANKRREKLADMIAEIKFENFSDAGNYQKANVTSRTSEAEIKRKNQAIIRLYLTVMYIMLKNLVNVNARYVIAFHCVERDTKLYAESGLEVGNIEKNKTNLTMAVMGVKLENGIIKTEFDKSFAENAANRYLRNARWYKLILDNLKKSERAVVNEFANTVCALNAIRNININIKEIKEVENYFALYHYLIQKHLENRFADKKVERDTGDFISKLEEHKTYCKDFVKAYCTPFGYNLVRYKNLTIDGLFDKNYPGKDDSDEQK

B1: target 1 insC 3' of 14,insA 3' of 4 (mixed)
RNA 1: CACCCGUGCAAAAAUGCAGGGGUCUAAAACUGAGCGGAUAACCUCUCUAUGG
RNA 2: GGGAAUGGAUCCACAUCUACGAAUUCGUACCAUAGAGACGGUUAUCCGCAUCACCGAGAUCGGAAGAGCACACGU
B2: target 1 insA 3' of 6,insG 3' of 3 (mixed)
RNA 1: B1 RNA 1
RNA 2: B1 RNA 2 with C39G, G41U, U43A, A44U, U45C, C47A, A50U, U51G
B3: target 1 insG 3' of 22,insA 3' of 17 (mixed)
RNA 1: B1 RNA 1
RNA 2: GGGAAUGGAUCCACAUCUACGAAUUCGUACGCAUAGAAGAGGUUAUCCGCUCACCGAGAUCGGAAGAGCACACGU
B4: target 1 G13A,A16U (mixed)
RNA 1: B1 RNA 1
RNA 2: GGGAAUGGAUCCACAUCUACGAAUUCGUACCAUAGUGAAGUUAUCCGCUCACCGAGAUCGGAAGAGCACACGU
B5: target 1 U8G,A14C (mixed)
RNA 1: B1 RNA 1
RNA 2: B4 RNA 2 with U36A, A38C, A39G, U44G
B6: target 1 complement block 1-10 (mixed)
RNA 1: B1 RNA 1
RNA 2: GGGAAUGGAUCCACAUCUACGAAUUCGUACCAUAGAGAGGUAUAGGCGAGUCCGAGAUCGGAAGAGCACACGU
B7: target 1 del16 (mixed)
RNA 1: B1 RNA 1
RNA 2: GGGAAUGGAUCCACAUCUACGAAUUCGUACCAUAGGAGGUUAUCCGCUCACCGAGAUCGGAAGAGCACACGU
B8: target 1 G5A (mixed)
RNA 1: B1 RNA 1
RNA 2: B4 RNA 2 with U36A, A39G, G47A
B9: target 1 U19C,A20G (mixed)
RNA 1: B1 RNA 1
RNA 2: B4 RNA 2 with A32G, U33C, U36A, A39G
B10: target 1 U10A,G15A (mixed)
RNA 1: B1 RNA 1
RNA 2: B4 RNA 2 with U36A, G37A, A39G, U42A
B11: target 1 insU 3' of 18,insA 3' of 2 (mixed)
RNA 1: B1 RNA 1
RNA 2: B1 RNA 2 with G35U, A36G, G37A, A38G, C39A, A50U, U51C, C52A
B12: target 1 insG 3' of 18,insA 3' of 6 (mixed)
RNA 1: B1 RNA 1
RNA 2: B1 RNA 2 with A36G, G37A, A38G, C39A, G48A, C49G, A50C
B13: target 1 G5U,C22A (mixed)
RNA 1: B1 RNA 1
RNA 2: B4 RNA 2 with C30A, U36A, A39G, G47U
B14: target 1 A1C,G5A (mixed)
RNA 1: B1 RNA 1
RNA 2: B4 RNA 2 with U36A, A39G, G47A, A51C
B15: target 1 U8A,A20U (mixed)
RNA 1: B1 RNA 1
RNA 2: B4 RNA 2 with A32U, U36A, A39G, U44A
B16: target 1 insU 3' of 18,insG 3' of 1 (mixed)
RNA 1: B1 RNA 1
RNA 2: B1 RNA 2 with G35U, A36G, G37A, A38G, C39A, A50U, U51C, C52A, A53G
B17: target 1 insG 3' of 6,insG 3' of 2 (mixed)
RNA 1: B1 RNA 1
RNA 2: B1 RNA 2 with C39G, G41U, U43A, A44U, U45C, C47G, A50U, U51C, C52G
B18: target 1 A1U,G5A (mixed)
RNA 1: B1 RNA 1
RNA 2: B4 RNA 2 with U36A, A39G, G47A, A51U
B19: target 1 insC 3' of 13,insU 3' of 6 (mixed)
RNA 1: B1 RNA 1
RNA 2: B1 RNA 2 with C39G, G40C, G48U, C49G, A50C
B20: target 1 G17U,A20G (mixed)
RNA 1: B1 RNA 1
RNA 2: B4 RNA 2 with A32G, G35U, U36A, A39G
B21: target 1 insG 3' of 9,insU 3' of 7 (mixed)
RNA 1: B1 RNA 1
RNA 2: B1 RNA 2 with C39G, G41U, U43A, A44G, C47U, G48C, C49G, A50C
B22: target 1 U19A,A20G (mixed)
RNA 1: B1 RNA 1
RNA 2: B4 RNA 2 with A32G, U33A, U36A, A39G
B23: target 1 insG 3' of 11,insG 3' of 4 (mixed)
RNA 1: B1 RNA 1
RNA 2: B1 RNA 2 with C39G, G41U, U42G, A50G
B24: target 1 G15U,A16C (mixed)
RNA 1: B1 RNA 1
RNA 2: B4 RNA 2 with U36C, G37U, A39G
B25: target 1 C7U,G13A (mixed)
RNA 1: B1 RNA 1
RNA 2: B4 RNA 2 with U36A, C45U
B26: target 1 G13A,A18U (mixed)
RNA 1: B1 RNA 1
RNA 2: B4 RNA 2 with A34U, U36A
B27: target 1 C6A,U10A (mixed)
RNA 1: B1 RNA 1
RNA 2: B4 RNA 2 with U36A, A39G, U42A, C46A
B28: target 1 C2G,C4U (mixed)
RNA 1: B1 RNA 1
RNA 2: B4 RNA 2 with U36A, A39G, C48U, C50G
B29: target 1 insC 3' of 1 (mixed)
RNA 1: B1 RNA 1
RNA 2: GGGAAUGGAUCCACAUCUACGAAUUCGUACCAUAGAGAGGUUAUCCGCUCACCCGAGAUCGGAAGAGCACACGU
B30: target 1 C7A,A20G (mixed)
RNA 1: B1 RNA 1
RNA 2: B4 RNA 2 with A32G, U36A, A39G, C45A
B31: target 1 C6U,C21U (mixed)
RNA 1: B1 RNA 1
RNA 2: B4 RNA 2 with C31U, U36A, A39G, C46U
B32: target 1 insA 3' of 21,insU 3' of 20 (mixed)
RNA 1: B1 RNA 1
RNA 2: B3 RNA 2 with G31C, C32A, A35U, G36A, A37G
B33: target 1 insU 3' of 18,insC 3' of 1 (mixed)
RNA 1: B1 RNA 1
RNA 2: B1 RNA 2 with G35U, A36G, G37A, A38G, C39A, A50U, U51C, C52A, A53C
B34: target 1 A9U,G15U (mixed)
RNA 1: B1 RNA 1
RNA 2: B4 RNA 2 with U36A, G37U, A39G, A43U

What follows are binders tested against T1, EsCas13d, nuclease-dead (assay: crRNA (strand 1, pre-loaded); Mg2+; 40 mM Tris-HCl pH 7.5, 150 mM NaCl, 6 mM MgCl2, 1 mM DTT, 0.1% Tween-20, 0.2 mg/ml BSA; 25 C; 10 min per concentration, then washed). Details: tags: His6-TwinStrep-SUMO cleaved; N-terminal SNAP kept (SNAP-Surface 488); label: 3' end held by stalled T7 RNA polymerase.

Binder | Kd [nM]
B1 | 24.3 ± 1.9
B2 | 13.1 ± 0.5
B3 | 71 ± 24
B4 | 43 ± 6
B5 | ~80
B6 | 16.6 ± 0.6
B7 | 46 ± 4
B8 | 51 ± 8
B9 | 55 ± 22
B10 | 31 ± 3
B11 | 33.5 ± 2.6
B12 | 73 ± 25
B13 | 54 ± 14
B14 | 26 ± 9
B15 | 80 ± 21
B16 | 27.4 ± 1.3
B17 | 10.4 ± 1.1

Binder | Kd [nM]
B18 | 34 ± 6
B19 | 11 ± 0.9
B20 | 40 ± 6
B21 | 16.4 ± 0.8
B22 | 56 ± 7
B23 | 54 ± 13
B24 | 83 ± 16
B25 | 6.2 ± 0.7
B26 | 22.5 ± 2
B27 | 7.7 ± 0.4
B28 | 54 ± 16
B29 | 9.1 ± 0.6
B30 | 45 ± 13
B31 | 6.2 ± 0.4
B32 | 19.7 ± 1.9
B33 | 23.5 ± 2
B34 | 46 ± 11
